In experiment [1] the target is T1, compound 1 as a partial peptide of FGF-8 with the C terminal labeled with biotin (human, C terminal labeled with biotin).
T1 construct: Captured on Sensor Chip SA (35 RU) for BIAcore 2000; also called compound 1 labeled with biotin; FGF-8 peptide
T1 peptide: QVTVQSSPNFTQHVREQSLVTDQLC
In words: BIAcore 2000, biotin-labeled compound 1 on SA chip (35 RU), antibody 16.7 µg/mL; dissociation hardly observed. The procedure:
(§1) In order to examine the FGF-8 binding activity of the anti-FGF-8 neutralizing CDR-grafted antibodies obtained in 5. of Reference Example 3, the FGF-8 binding activity of the various anti-FGF-8 neutralizing CDR-grafted antibodies was measured and compared through BIAcore 2000 using compound 1 as a partial peptide of FGF-8 with the C terminal labeled with biotin in the following manner. The anti-FGF-8 neutralizing chimeric antibody KM3034 derived from CHO/DG44 cells obtained in 3. (1) of Reference Example 1 was used as a positive control.
(§2) HBS-EP was used as a sample diluent and a buffer during measurement. First, Sensor Chip SA (manufactured by BIACORE) was installed, and 5 μL of compound 1 labeled with biotin which had been adjusted to 0.05 μg/mL was added at a flow rate of 5 μL/min. Then, 5 μL of a 10 mmol/L glycine-hydrochloride solution (pH 1.5) was added twice continuously to wash the tip surface. The immobilization amount of the FGF-8 peptide was 35 RU.
60 μL of each of the antibody solutions was added to an FGF-8 peptide immobilized flow cell at a flow rate of 20 μL/min, and the dissociation reaction was then monitored for 3 minutes. After the dissociation reaction, 20 μL of 10 mmol/L glycine-hydrochloride solution (pH 1.5) was added twice continuously to regenerate the chip surface. This cycle was performed on the antibody solution at various concentrations (from 50 to 1.85 μg/mL) to obtain sensor grams at various concentrations. The sensor grams of the respective antibodies were converted to sensor grams of specific reactions by deduceing a sensor gram obtained using the chimeric antibody KM871 to GD3 as a negative control.

In experiment [2] the target is T2, BSA-compound 1 (conjugate of the human FGF-8 partial peptide compound 1 with bovine serum albumin) (human, not fully specified; C-terminal cysteine conjugated to BSA through SMCC).
T2 construct: Coated on ELISA plates; the BSA carrier is not written as a chain
T2 peptide: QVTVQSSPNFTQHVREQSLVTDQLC
In words: ELISA, plate coated with BSA-compound 1; positive control. The procedure:
The above-prepared BSA-compound 1 solution was dispensed at a 96-well ELISA plate (manufactured by Greiner) at a concentration of from 0.5 to 1.0 μg/mL in an amount of 50 μL/well, and allowed to stand overnight at 4° C. for adsorption. After washing with PBS, 1% BSA-containing PBS (hereinafter referred to as BSA-PBS) was added in an amount of 100 μL/well and reacted at room temperature for 1 hour to block a remaining active group. After washing each well with 0.05% Tween-containing PBS (hereinafter referred to as Tween-PBS), the culture supernatant or the purified antibody of the tranformants was added in an amount of 50 μL/well, and the reaction was conducted at room temperature for 1 hour. After the reaction, each well was washed with Tween-PBS, a peroxidase-labeled goat anti-human IgG (H & L) antibody solution (manufactured by American Qualex) diluted 3,000 to 6,000 times with BSA-PBS was added as a second antibody solution in an amount of 50 μL/well. The reaction was performed at room temperature for 1 hour. […] Then, absorbance was measured at 415 nm.
A general note: ELISA stands for enzyme-linked immunosorbent assay.

Experiment [3] addresses T2, BSA-compound 1 (conjugate of the human …). As to the kind of experiment: ELISA, plate coated with BSA-compound 1.
Experiment [4] concerns the target T3, FGF-8 (manufactured by R & D) (Homo sapiens (Human), UniProt P55075 23-215).
T3 sequence: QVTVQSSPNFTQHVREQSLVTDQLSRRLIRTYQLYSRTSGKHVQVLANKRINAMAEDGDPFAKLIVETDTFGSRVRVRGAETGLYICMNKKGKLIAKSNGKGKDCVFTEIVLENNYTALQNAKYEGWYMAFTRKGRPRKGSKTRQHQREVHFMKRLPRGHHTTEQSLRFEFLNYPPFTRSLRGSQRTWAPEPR
In words: cell-based or functional assay.

The target of experiment [5] is T1, compound 1 as a partial peptide of …. In words: BIAcore 2000, biotin-labeled compound 1 on SA chip, antibody 16.7 µg/mL; dissociation hardly observed. The procedure:
as §1, §2
60 μL of each of the antibody solutions was added to an FGF-8 peptide immobilized flow cell at a flow rate of 20 μL/min, and the dissociation reaction was then monitored for 3 minutes. After the dissociation reaction, 20 μL of 10 mmol/L glycine-hydrochloride solution (pH 1.5) was added twice continuously to regenerate the chip surface. […]
(SPR reads the build-up and loss of mass on a sensor chip optically.)

Numbering of substitutions follows the chain as printed.

B1: anti-FGF-8 neutralizing CDR-grafted antibody HV0LV3-1/CHO (antibody, V domains shown)
VH: QVQLVQSGAEVKKPGASVKVSCKASGYTFTDYYLNWVRQAPGQGLEWMGEIDPGSDSIYYNENLEGRVTITADTSTSTAYMELSSLRSEDTAVYYCARYGYSRYDVRFVYWGQGTLVTVSS
VL: DVVMTQSPLSLPVTPGEPASISCRSSQSLVHSNGRTYLEWYLQKPGQSPQVLIYKVSNRISGVPDRFSGSGSGTDFTLKISRVEAEDVGVYFCFQGSHVPYTFGQGTKVEIK
notes: HV.0 + LV.3-1; also called KM8036
On to B1, for which the binding result in experiment [1] is “binds”.

B2: anti-FGF-8 neutralizing chimeric antibody KM3334 (antibody, V domains shown)
VH: QVQLQQSGAEVARPGASVKLSCKASGYTFTDYYLNWVKQRSGQGLEWIGEIDPGSDSIYYNENLEGRATLTADKSSSTAYMQLNSLTSEDSAVYFCARYGYSRYDVRFVYWGQGTLVTVST
VL: B1 VL with V3L, S7T, T14S, P15L, E17D, P18Q, Q50K, V88L, Q105G, V109L
notes: expressed in YB2/0 cells; also called human chimeric antibody KM3334
On to B2, for which the binding result in experiment [2] is on record as “binds”.

B3: anti-FGF-8 neutralizing chimeric antibody KM3034 (antibody, V domains shown)
VH: B2 VH
VL: B1 VL with V3L, S7T, T14S, P15L, E17D, P18Q, Q50K, V88L, Q105G, V109L
notes: expressed in CHO/DG44 cells; also called human chimeric antibody KM3034
Regarding B3, the binding result in experiment [1] is on record as “binds”.

B4: anti-FGF-8 neutralizing CDR-grafted antibody HV0LV6 (antibody, V domains shown)
VH: B1 VH
VL: B1 VL with T14S, P15L, Q50K
notes: HV.0 + LV.6; YB2/0 cell-derived; also called KM8037
For the molecule B4, the binding result in experiment [3] is “binds”.

B5: anti-FGF-8 neutralizing CDR-grafted antibody HV0LV4-2/CHO (antibody, V domains shown)
VH: B1 VH
VL: B1 VL with T14S, P15L, V51L
notes: HV.0 + LV.4-2; CHO/DG44 cell-derived
Regarding B5, the binding result in experiment [1] is reported as “binds”.

B6: anti-FGF-8 neutralizing CDR-grafted antibody HV0LV2-1/CHO (antibody, V domains shown)
VH: B1 VH
VL: B1 VL with V2I
notes: HV.0 + LV.2-1; CHO/DG44 cell-derived
As to B6, in experiment [1], the binding result was “binds”.

B7: anti-FGF-8 neutralizing CDR-grafted antibody HV0LV4-1/CHO (antibody, V domains shown)
VH: B1 VH
VL: B1 VL with Q50K
notes: HV.0 + LV.4-1; CHO/DG44 cell-derived
B7: the binding result in experiment [1] was “binds”.

B8: anti-FGF-8 neutralizing CDR-grafted antibody HV0LV2-2/CHO (antibody, V domains shown)
VH: B1 VH
VL: B1 VL with V51L
notes: HV.0 + LV.2-2; CHO/DG44 cell-derived
As to B8, the binding result in experiment [1] was “binds”.

B9: anti-FGF-8 neutralizing CDR-grafted antibody HV0LV3-3/CHO (antibody, V domains shown)
VH: B1 VH
VL: B1 VL with V2I, T14S, P15L, F92Y
notes: HV.0 + LV.3-3; CHO/DG44 cell-derived
In the case of B9, in experiment [4], the “FGF-8 neutralizing activity (FGF-8-dependent growth of SC-3 cells), relative to KM3034” value was ~0.5 fold of KM3034. For the same molecule, in experiment [5], the binding result is recorded as “binds”.

B10: anti-FGF-8 neutralizing CDR-grafted antibody HV0LV3-2/CHO (antibody, V domains shown)
VH: B1 VH
VL: B1 VL with V2I, T14S, P15L, V51L
notes: HV.0 + LV.3-2; CHO/DG44 cell-derived
For the molecule B10, the binding result in experiment [1] is reported as “binds”.

B11: anti-FGF-8 neutralizing CDR-grafted antibody HV0LV0 (antibody, V domains shown)
VH: B1 VH
VL: B1 VL with V2I, V51L, F92Y
notes: HV.0 + LV.0
Take B11: the binding result in experiment [3] is reported as “binds”.

B12: anti-FGF-8 neutralizing CDR-grafted antibody HV0LV4-3/CHO (antibody, V domains shown)
VH: B1 VH
VL: B1 VL with V2I, T14S, P15L
notes: HV.0 + LV.4-3; also called KM8035
With B12, the “FGF-8 neutralizing activity (FGF-8-dependent growth of SC-3 cells), relative to KM3034” value in experiment [4] is ~0.5 fold of KM3034. Besides, the binding result in experiment [5] is recorded as “binds”.

B13: anti-FGF-8 neutralizing CDR-grafted antibody HV0LV0/CHO (antibody, V domains shown)
VH: B1 VH
VL: B1 VL with V2I, V51L, F92Y
notes: HV.0 + LV.0; CHO/DG44 cell-derived
Take B13: in experiment [1], the binding result was “binds”.

B14: anti-FGF-8 neutralizing CDR-grafted antibody HV6LV6 (antibody, V domains shown)
VH: B1 VH with K12A, K13R, A40R, P41S, M48I, Y95F
VL: B1 VL with T14S, P15L, Q50K
notes: HV.6 + LV.6
Regarding B14, in experiment [3], the binding result is given as “binds”.

B15: anti-FGF-8 neutralizing CDR-grafted antibody HV0LV6/CHO (antibody, V domains shown)
VH: B1 VH
VL: B1 VL with T14S, P15L, Q50K
notes: HV.0 + LV.6; CHO/DG44 cell-derived; also called KM8034
For B15, the binding result in experiment [1] was “binds”.

These data come from patent US20050175608A1 (Kyowa Kirin, published 2005).
